Patent US20060110789A1, “Methods to mediate polyketide synthase module effectiveness” (priority 2002, published 2006)
Where “and” joins values, the source holds several entries; their conditions need not be identical. Identical values can stand only once.

Legend:
[1] = biological target: M3+TE or (5)M3+TE (DEBS module 3 fused to thioesterase); conditions: with M3+TE, cited from earlier work
[2] = tested on: cysteamine thioester of 2S,3R-2-methyl-3-hydroxypentanoic acid (diketide); assay: Cell-free synthesis of triketides from diketide thioester by single module constructs; format: biochemical; conditions: 0.5-10 mM diketide thioester, 2.5 mM 14C-methylmalonyl CoA, 100 pmoles protein, 30 minutes, TLC
Experimental: (§1) A cell-free system, tested for the ability to convert the cysteamine thioester of 2S,3R-2-methyl-3-hydroxypentanoic acid (compound 2 in FIG. 2), consisted of 0.5-10 mM concentration of the thioester, 2.5 mM ^14C-labeled methylmalonyl CoA and 100 pmoles of purified protein prepared in Example 1 in a 100 μl reaction. In some cases, 1 mM of NADPH was added; this was done in assay mixtures containing (M2+TE), (M5+TE) and (M6+TE) proteins. The protein was, in each case, a single module of the DEBS PKS fused to the thioesterase (TE) termination region of module 6.
The reaction mixtures were quenched and extracted by ethyl acetate and separated by thin-layer chromatography (TLC) to discern the formation of the triketide ketolactone 3 and triketide lactone 4 (both shown in FIG. 2) after 30 minutes.
The constructs for (M2+TE) and (M6+TE) were modified by deleting the sequences encoding the amino acids upstream of the KS catalytic domain and substituting the first 39 amino acids from (M5+TE) containing the N-terminal portion of the interpolypeptide linker (N-ERL). The relevant constructs were prepared by replacing the BsaBI-EcoRI fragment in pRSG46 by the corresponding fragment from pCK4 to obtain N-ERL-M2+TE), in plasmid pRSG64, or from pJRJ10 to obtain (N-ERL-M6+TE) in plasmid pRSG54. These constructs yield modules which contain the upstream 39 amino acids from module 5.

diketide thioester = assay: Kinetic constants kcat and KM of single module constructs converting diketide to triketide; format: biochemical
Experimental: as §1
The various constructs which are successful in converting diketide to triketide were then evaluated for the kinetic constants kcat and KM. […] This is evidently due to the absence of beta-carbonyl modifying enzymes in module 3 as verified by the fact that removal of NADPH, (which is required for the activity of such modules) from the reaction mixture of (N-ERL-M6+TE) also results in a lowering of the kcat.

[3] = tested on: individually assayed modules, including M3+TE; assay: Effect of synthetic peptide on individually assayed modules; format: biochemical
Experimental: In Vitro Polyketide Production Assays of individual modules contained 1.0 μM protein, 1-10 mM N-acetylcysteamine thioester of the “natural” (2S,3R)-2-methyl-3-hydroxypentanoic acid diketide (NDK) (1), 4 mM NADPH, 440 mM sodium phosphate, 1 mM EDTA, 2.5 mM dithiothreitol (DTT), and 20% w/v glycerol, pH 7.2, in 80 μL. Reactions with M2 or M2(4) included 0.3 mM ^14C-methylmalonyl-CoA (specific activity adjusted to 10.4 mCi/mmol), and those with M3+TE or (5)M3+TE included 0.5 mM ^14C-methylmalonyl-CoA (specific activity reduced to 1.1 mCi/mmol). [M2(4) refers to a derivative of M2 in which the C-terminal linker has been replaced with its counterpart from module 4, whereas (5)M3 refers to a derivative of M3 in which the N-terminal linker has been replaced with its counterpart from module 5 (see FIG. 4).] Both concentrations of methylmalonyl-CoA were saturating, but different concentrations were needed due to the disparate rates of turnover between the modules with and without the thioesterase. The reaction mixtures were preincubated to 30° C. and started with the addition of the methylmalonyl-CoA. […] Product formation was quantified by comparison with standards of the labeled methylmalonyl-CoA. […]
Inhibition of Tetraketide Production. […] The effect of the inhibitor was thus determined by dividing the inhibited rate by the control rate.

M2(4) and (5)M3+TE = biological target: T1, M2(4) and (5)M3+TE (Saccharopolyspora erythraea, UniProt Q03131+Q03133, A1559G/A1612M/A1613S/A1621R/A1638S/A1707S/A1714P/A1717D/A1741R/A1766S/A1884G/A1933P/A1935T/A1951R/A1969R/A1973H/A1979Q/A2007V/A2008V/A2011V/A2018D/A2064V/A2138S/D1597P/D1620G/DEL1744-1744/DEL1923-1924/DEL1955-1967/E1628D/E1873D/E1883D/E1925V/E1947G/E1993A/E2004D/F1591L/G1618A/G1705A/G1739A/G1878E/G1927Q/G1930R/G1977A/G1990A/G1997H/G2038E/G2099R/H1599E/H1992T/I1756V/INS1626G/INS1975[…]/K1779R/K2139R/L1590A/L1610V/L1858V/L1941V/L1981F/L1987V/L1995A/L2136R/L2141V/L2144V/N1593S/N1855E/N1936G/P1725G/P1740R/P1870G/P1887E/P1889S/P1982E/Q1619T/Q1732V/Q1746R/Q1994E/Q1998R/Q2070P/R1983E/R1996V/S1600T/S1627V/S1636T/S1637A/S1670T/S1886R/S1937V/S1972D/S2041P/S2089A/S2104V/T1762S/T1948A/T1968G/T1976R/T2012V/T2015S/V1583A/V1601L/V1622P/V1623R/V1640A/V1644I/V1655L/V1708P/V1728S/V1730F/V1851L/V1879I/V1929R/V1931M/V2006A/V2021S/V2103A/V2124A/V2131M/Y1614H); assay: Inhibition of tetraketide production by synthetic peptide, M4-M5 linker pair; format: biochemical; conditions: M2(4) 0.5 μM and (5)M3+TE 1.0 μM, peptide concentrations up to 100 μM
T1 construct: Plasmid pST179 encodes a derivative of M2 containing the C-terminal linker of DEBS module 4 (M4); made in house; host or cells: E. coli BL21(DE3) with B. subtilis sfp; pET-21c
Experimental: (§2) Inhibition of Tetraketide Production. The ability of the synthetic peptide to inhibit the transfer reaction, and thus the production of tetraketide, was tested under the same reaction conditions described for the two module coincubations. The concentrations of M2 and M3+TE were both 1.0 μM, and the concentrations of M2(4) and (5)M3+TE were 0.5 and 1.0 μM, respectively. The only difference was the addition of the peptide at concentrations ranging from 1 to 100 μM to the assay containing M2 and M3+TE [or alternatively M2(4) and (5)M3+TE]. For greater accuracy, each inhibition assay was performed side by side with a control lacking inhibitor. The effect of the inhibitor was thus determined by dividing the inhibited rate by the control rate.

M2 and M3+TE = biological target: T2, M2 and M3+TE (Saccharopolyspora erythraea, UniProt Q03131); assay: Inhibition of tetraketide production by synthetic peptide, M2-M3 linker pair; format: biochemical; conditions: M2 and M3+TE both 1.0 μM, peptide 1 to 100 μM
T2 construct: Plasmid pBP19 contains module 2 of DEBS (M2) and is a derivative of pRSG64; made in house; host or cells: E. coli BL21(DE3) with B. subtilis sfp; pET-21c
Experimental: as §2

[4] = tested on: M3+TE or (5)M3+TE (DEBS module 3 fused to thioesterase); assay: Coincubation of donor module 2 proteins with module 3+TE: tetraketide lactone 2 formation and KD; format: biochemical; conditions: acceptor (5)M3+TE, matched M4-M5 linker pair, saturation curve
Experimental: Assays of M2 and M3+TE contained 10 μM M2 and […] M3+TE, 7 mM NDK, 0.5 mM ^14C-methylmalonyl-CoA (specific activity reduced to 3.4 mCi/mmol), 4 mM NADPH, 440 mM sodium phosphate, 1 mM EDTA, 2.5 mM DTT, and 20% w/v glycerol, pH 7.2, in 70 μL. Assays of M2(4) and (5)M3+TE were identical, except they contained 0.5 μM M2(4), 0.5-5 μM (5)M3+TE, and 0.4 mM ^14C-methylmalonyl-CoA (specific activity reduced to 6.2 mCi/mmol). The concentration of M2(4) was limiting in order to facilitate its saturation with (5)M3+TE. The reactions were prewarmed at 30° C. and initiated by the addition of the methylmalonyl-CoA. As described above, 20 μL aliquots were removed at various time points and processed. […]
For tetraketide formation, the rate of production of tetaketide was recorded for varying concentrations of M3+TE [or (5)M3+TE] at a fixed concentration of M2 [or M2(4)] and saturating concentrations of substrates. By fitting the rate dependence of tetraketide to a saturation curve, the maximal velocity (vmax) of tetraketide production was determined, and was assumed to represent the case where every M2 homodimer was productively associated with an M3+TE homodimer. Thus, the affinity of this protein-protein interaction could be calculated from the rate v=kcat[M2−M3] […]

[5] = tested on: N-acetylcysteamine thioester of (2S,3R)-2-methyl-3-hydroxypentanoic acid diketide (NDK); assay: In vitro polyketide production assays of individual modules with NDK (kinetic analysis); format: biochemical; conditions: NDK 1-10 mM, 1.0 μM protein, 30° C; M2 and M2(4) only approximate (triketide lactone 3)
Experimental: In Vitro Polyketide Production Assays of individual modules contained 1.0 μM protein, 1-10 mM N-acetylcysteamine thioester of the “natural” (2S,3R)-2-methyl-3-hydroxypentanoic acid diketide (NDK) (1), 4 mM NADPH, 440 mM sodium phosphate, 1 mM EDTA, 2.5 mM dithiothreitol (DTT), and 20% w/v glycerol, pH 7.2, in 80 μL. Reactions with M2 or M2(4) included 0.3 mM ^14C-methylmalonyl-CoA (specific activity adjusted to 10.4 mCi/mmol), and those with M3+TE or (5)M3+TE included 0.5 mM ^14C-methylmalonyl-CoA (specific activity reduced to 1.1 mCi/mmol). [M2(4) refers to a derivative of M2 in which the C-terminal linker has been replaced with its counterpart from module 4, whereas (5)M3 refers to a derivative of M3 in which the N-terminal linker has been replaced with its counterpart from module 5 (see FIG. 4).] […] Product formation was quantified by comparison with standards of the labeled methylmalonyl-CoA. […]
Kinetic Analysis. For individual modules, the steady-state turnover number was determined from the time course of triketide formation, normalized to the concentration of protein. The dependence of the rate on substrate concentration was measured by varying the concentration of NDK while maintaining saturating levels of NADPH and methylmalonyl-CoA.

[6] = diketide to triketide, cell-free
[7] = listed as N-terminal linker of module 3
[8] = listed as synthetic peptide mimic of the N-terminal linker of M3

**Q.** Which results are given for “DEBS1: first protein of 6-deoxyerythronolide B synthase: loading module and extender modules 1 and 2”?
**A.** Kd ([1]; Gokhale et al. 1999, read-out: KD (previously reported value)): 2600 nM; rate of formation of the same tetraketide (earlier measurement) ([1]; Pieper et al. 1997): 0.23 min⁻¹

**Q.** What does the source list for “ERL−M2+TE: module 2+TE with the first 39 amino acids from (M5+TE), N-terminal interpolypeptide linker (pRSG64)”?
**A.** Triketide Formed [2]: Yes; Km (diketide thioester; [6]): 4.6 ± 0.4 mM; kcat × 100 (diketide thioester; [6]): 8 ± 0.6 min^−1

**Q.** With “ERL−M6+TE: module 6+TE with the first 39 amino acids from (M5+TE), N-terminal interpolypeptide linker (pRSG54)” as the substance, how does the “Triketide Formed” value [2] read?
**A.** Yes

**Q.** And the Km (diketide thioester; [6])?
**A.** 4.3 ± 0.4 mM

**Q.** And the “kcat × 100” value (diketide thioester; [6])?
**A.** 9.5 ± 0.6 min^−1

**Q.** And the Km (diketide thioester; −NADPH)?
**A.** 4.1 ± 0.4 mM

**Q.** What about the “kcat × 100” value (diketide thioester; −NADPH) of the same substance?
**A.** 4.5 ± 0.7 min^−1

**Q.** What does the source list for “H2N-MTDSEKVAEYLRRATLDLRAARQRIRELESD-amide (H-MTDSEKVAEYLRRATLDLRAARQRIRELESD-NH2) [M3 N-term]”?
**A.** inhibitory effect upon individually assayed modules [3]: no inhibitory effect; inhibition of tetraketide production (M2(4) and (5)M3+TE; [7]): No inhibitory effect; inhibition of tetraketide production (M2(4) and (5)M3+TE; [8]): no such effect; inhibition of tetraketide production (M2 and M3+TE; [7]): inhibit the formation of 2 in the presence of M2 and M3+TE in a concentration-dependent manner; inhibition of tetraketide production (M2 and M3+TE; [8]): lowered the overall rate of tetraketide production in a dose-dependent fashion

**Q.** Which results are given for “M2(4): derivative of M2 containing the C-terminal linker of DEBS module 4 (pST179)”?
**A.** kcat of tetraketide lactone 2 synthesis [4]: 0.0123 ± 0.001 s⁻¹ and 0.0123 s⁻¹; kcat [5]: ~0.0005 s⁻¹

**Q.** With “M5+TE: DEBS module 5 with its natural N-terminal linker fused to thioesterase (pRSG46)” as the substance, how does the “Triketide Formed” value [2] read?
**A.** Yes

**Q.** What about the Km (diketide thioester; [6]) of the same substance?
**A.** 4.7 ± 0.4 mM

**Q.** What about the “kcat × 100” value (diketide thioester; [6]) of the same substance?
**A.** 7.5 ± 0.7 min^−1
